Assay results as given in ChEMBL document CHEMBL1154924, “Carbonic anhydrase activators: Activation of the beta-carbonic anhydrase from the pathogenic yeast Candida glabrata with amines and amino acids” (Bioorg Med Chem Lett, 2010).

How the values were obtained:
[1] = substrate: NCCc1c[nH]cn1; settings: Methanothermobacter thermautotrophicus
Description: Activity at archaea Methanobacterium thermoautotrophicum recombinant carbonic anhydrase

[2] = substrate: NCCc1c[nH]cn1; settings: Nakaseomyces glabratus
Description: Activity at Candida glabrata recombinant carbonic anhydrase

[3] = substrate: NCCc1c[nH]cn1; settings: Saccharomyces cerevisiae
Description: Activity at Saccharomyces cerevisiae recombinant Nce103p

B1: Carbonic anhydrase (Methanobacterium thermoautotrophicum), Q50565 (protein)
chain: MRFVSMIIKDILRENQDFRFRDLSDLKHSPKLCIITCMDSRLIDLLERALGIGRGDAKVIKNAGNIVDDGVIRSAAVAIYALGVNEIIIVGHTDCGMARLDEDLIVSRMRELGVEEEVIENFSIDVLNPVGDEEENVIEGVKRLKSSPLIPESIGVHGLIIDINTGRLKPLYLDED
B1 gave a Km [1] of 1700 µM.

B2: Carbonic anhydrase (Candida glabrata CBS 138), Q6FTL6 (protein)
chain: MTKDTIFTLTGKCALDNILDANRQWAQAMHRSQPQLFPTNGQGQDPHTLFIGCSDSRYNEDCLGVLPGEIFTLKTVANICHTDDHSLLATLEFAILNLKVNRIILCGHTDCGGIKTCLLGRESIKESCPHLYEHLDDIEDLVESHESELNQLDNICSKSKLMSHRNVERQLQRLLQIPVVQDALRNSNQDHEFNIFGLVYNVDSGLVDVVREVYGNQQK
With B2 the Km [2] was 7.9 mM.

B3: Carbonic anhydrase (Saccharomyces cerevisiae S288c), P53615 (protein)
chain: MSATESSSIFTLSHNSNLQDILAANAKWASQMNNIQPTLFPDHNAKGQSPHTLFIGCSDSRYNENCLGVLPGEVFTWKNVANICHSEDLTLKATLEFAIICLKVNKVIICGHTDCGGIKTCLTNQREALPKVNCSHLYKYLDDIDTMYHEESQNLIHLKTQREKSHYLSHCNVKRQFNRIIENPTVQTAVQNGELQVYGLLYNVEDGLLQTVSTYTKVTPK
Work on B3 yielded a Km [3] of 9.5 mM.
